One molecule from publication PMC7557104, “Population genetic and biophysical evidences reveal that purifying selection shapes the genetic landscape of Plasmodium falciparum RH ligands in Chhattisgarh and West Bengal, India” (Malaria Journal, 2020) can be followed below.

In experiment [1] the target is T1, rPfRH5M, recombinant receptor binding fragment of PfRH5 encoded by the most prevalent haplotype rh5h1 (Y203) (Plasmodium falciparum, UniProt Q8IFM5 35-222, C203Y).
T1 construct: PfRH5, Plasmodium falciparum, field-isolate haplotype rh5h1, which differs from the Pf3D7 allele by C203Y; 188 aa, Glutamine-35 to Serine-222, amplified from DNA of an infected blood sample; Cloned BamHI/HindIII into pET-20b(+); also called PfRH5_(variant); Y203 allele; source: E. coli BL21 (DE3), purified (Ni-NTA)
T1 sequence (looked up): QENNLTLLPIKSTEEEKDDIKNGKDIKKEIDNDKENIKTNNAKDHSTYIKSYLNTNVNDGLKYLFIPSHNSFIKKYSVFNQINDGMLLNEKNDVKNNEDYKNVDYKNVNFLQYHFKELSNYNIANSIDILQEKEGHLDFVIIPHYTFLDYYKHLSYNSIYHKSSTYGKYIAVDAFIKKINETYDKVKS
In words: ITC; BSG injected drop by drop (1 min intervals) into the cell holding PfRH5_(3D7) or PfRH5M; BSG 10 times more concentrated than PfRH5; 25 °C; 0.1 M phosphate buffer, pH 7.0, Dulbecco PBS pH 7.4 in the reference cell (methods); PBS-BSG titration subtracted; fit to one set of binding sites. The settings on record: both partners purified. (ITC needs no label: the signal is the heat of the interaction.)

Experiment [2] deals with T2, rPfRH5_(3D7), recombinant receptor binding fragment of P. falciparum reticulocyte binding protein-like … (Plasmodium falciparum, UniProt Q8IFM5 35-222).
T2 construct: made by site-directed mutagenesis (Y203 to C) of the field-isolate clone rPfRH5M-pET-20b; Cloned BamHI/HindIII into pET-20b(+); also called C203 allele; source: E. coli BL21 (DE3), purified (Ni-NTA)
T2 sequence: T1 sequence (looked up) with Y169C
The description is as above. Conditions: both partners purified.

Residue numbers refer to the chain shown, from its start.

B1: basigin (BSG) (receptor)
chain: AAGTVFTTVEDLGSKILLTCSLNDSATEVTGHRWLKGGVVLKEDALPGQKTEFKVDSDDQWGEYSCVFLPEPMGTANIQLHGPPRVKAVKSSEHINEGETAMLVCKSESVPPVTDWAWYKITDSEDKALMNGSESRFFVSSSQGRSELHIENLNMEADPGQYRCNGTSSKGSDQAIITLRVRSHLAAL
Regarding B1, the Ka in experiment [1] amounted to 3.63e+06 M⁻¹; in experiment [2], 1.31e+06 M⁻¹.
